The chains are these.
B1: bsAb059 (bispecific antibody)
heavy: QVQLVQSGVEVKKPGASVKVSCKASGYTFTNYYMYWVRQAPGQGLEWMGGINPSNGGTNFNEKFKNRVTLTTDSSTTTAYMELKSLQFDDTAVYYCARRDYRFDMGFDYWGQGTTVTVSSASTKGPSVFPLAPSSKSTSGGTAALGCLVKDYFPEPVTVSWNSGALTSGVHTFPAVLQSSGLYSLSSVVTVPSSSLGTQTYICNVNHKPSNTKVDKRVEPKSCDKTHTCPPCPAPEFEGGPSVFLFPPKPKDTLMISRTPEVTCVVVDVSHEDPEVKFNWYVDGVEVHNAKTKPREEQYNSTYRVVSVLTVLHQDWLNGKEYKCKVSNKALPASIEKTISKAKGQPREPQVYTLPPSREEMTKNQVSLTCLVKGFYPSDIAVEWESNGQPENNYKTTPPVLDSDGSFFLYSKLTVDKSRWQQGNVFSCSVMHEALHNHYTQKSLSLSPG
light: QVQLVQSGAEVKKPGASVKLSCKASGYIFTRYYMYWVKQRPGQGLEWIGEINPNNGGTKFNEKFKNRATLTVDKSISTAYMELSRLRSDDTAVYYCSREDDYDGTPFAMDYWGQGTLVTVSSGGGGSGGGGSGGGGSGGGGSDIQMTQSPSSLSASVGDRVTITCHASQNINVWLSWYQQKPGKAPKLLIYKASNLHTGVPSRFTGSGSGTDFTFTISSLQPEDIATYYCQQGQTYPYTFGQGTKLEIKGGGGSGGGGSGGGGSGGGGSEIVLTQSPATLSLSPGERATLSCRASKGVSTSGYSYLHWYQQKPGQAPRLLIYLASYLESGVPARFSGSGSGTDFTLTISSLEPEDFAVYYCQHSRDLPLTFGGGTKVEIKRTVAAPSVFIFPPSDEQLKSGTASVVCLLNNFYPREAKVQWKVDNALQSGNSQESVTEQDSKDSTYSLSSTLTLSKADYEKHKVYACEVTHQGLSSPVTKSFNRGEC
B2: bsAb060 (bispecific antibody)
heavy: B1 heavy
light: DIQMTQSPSSLSASVGDRVTITCHASQNINVWLSWYQQKPGKAPKLLIYKASNLHTGVPSRFTGSGSGTDFTFTISSLQPEDIATYYCQQGQTYPYTFGQGTKLEIKGGGGSGGGGSGGGGSGGGGSQVQLVQSGAEVKKPGASVKLSCKASGYIFTRYYMYWVKQRPGQGLEWIGEINPNNGGTKFNEKFKNRATLTVDKSISTAYMELSRLRSDDTAVYYCSREDDYDGTPFAMDYWGQGTLVTVSSGGGGSGGGGSGGGGSGGGGSEIVLTQSPATLSLSPGERATLSCRASKGVSTSGYSYLHWYQQKPGQAPRLLIYLASYLESGVPARFSGSGSGTDFTLTISSLEPEDFAVYYCQHSRDLPLTFGGGTKVEIKRTVAAPSVFIFPPSDEQLKSGTASVVCLLNNFYPREAKVQWKVDNALQSGNSQESVTEQDSKDSTYSLSSTLTLSKADYEKHKVYACEVTHQGLSSPVTKSFNRGEC
B3: bsAb039 (bispecific antibody, not shown: small tags and cut ends; a dimerising Fc or GST)
heavy (part 1 of 2): QVQLVQSGVEVKKPGASVKVSCKASGYTFTNYYMYWVRQAPGQGLEWMGGINPSNGGTNFNEKFKNRVTLTTDSSTTTAYMELKSLQFDDTAVYYCARRDYRFDMGFDYWGQGTTVTVSS
heavy (part 2 of 2): GGGGSGGGGSGGGGSGGGGSDIQMTQSPSSLSASVGDRVTITCHASQNINVWLSWYQQKPGKAPKLLIYKASNLHTGVPSRFTGSGSGTDFTFTISSLQPEDIATYYCQQGQTYPYTFGQGTKLEIKGGGGSGGGGSGGGGSGGGGSQVQLVQSGAEVKKPGASVKLSCKASGYIFTRYYMYWVKQRPGQGLEWIGEINPNNGGTKFNEKFKNRATLTVDKSISTAYMELSRLRSDDTAVYYCSREDDYDGTPFAMDYWGQGTLVTVSS
heavy: B3 heavy (part 2 of 2)
light: EIVLTQSPATLSLSPGERATLSCRASKGVSTSGYSYLHWYQQKPGQAPRLLIYLASYLESGVPARFSGSGSGTDFTLTISSLEPEDFAVYYCQHSRDLPLTFGGGTKVEIKRTVAAPSVFIFPPSDEQLKSGTASVVCLLNNFYPREAKVQWKVDNALQSGNSQESVTEQDSKDSTYSLSSTLTLSKADYEKHKVYACEVTHQGLSSPVTKSFNRGEC
B4: bsAb053 (bispecific antibody, not shown: small tags and cut ends)
heavy (part 1 of 2): B3 heavy (part 1 of 2)
heavy (part 2 of 2): GGGGSGGGGSGGGGSGGGGSQVQLVQSGAEVKKPGASVKLSCKASGYIFTRYYMYWVKQRPGQGLEWIGEINPNNGGTKFNEKFKNRATLTVDKSISTAYMELSRLRSDDTAVYYCSREDDYDGTPFAMDYWGQGTLVTVSSGGGGSGGGGSGGGGSGGGGSDIQMTQSPSSLSASVGDRVTITCHASQNINVWLSWYQQKPGKAPKLLIYKASNLHTGVPSRFTGSGSGTDFTFTISSLQPEDIATYYCQQGQTYPYTFGQGTKLEIK
heavy: B3 heavy (part 1 of 2)
light: B3 light
B5: bsAb042 (bispecific antibody, not shown: small tags and cut ends; a dimerising Fc or GST)
heavy 1: B3 heavy (part 1 of 2)
heavy 2: QVQLVQSGAEVKKPGASVKLSCKASGYIFTRYYMYWVKQRPGQGLEWIGEINPNNGGTKFNEKFKNRATLTVDKSISTAYMELSRLRSDDTAVYYCSREDDYDGTPFAMDYWGQGTLVTVSSGGGGSGGGGSGGGGSGGGGSDIQMTQSPSSLSASVGDRVTITCHASQNINVWLSWYQQKPGKAPKLLIYKASNLHTGVPSRFTGSGSGTDFTFTISSLQPEDIATYYCQQGQTYPYTFGQGTKLEIKGGGGSGGGGSGGGGSGGGGS
light: EIVLTQSPATLSLSPGERATLSCRASKGVSTSGYSYLHWYQQKPGQAPRLLIYLASYLESGVPARFSGSGSGTDFTLTISSLEPEDFAVYYCQHSRDLPLTFGGGTKVEIKRTVAAPSVFIFPPSDEQLKSGTASVVCLLNNFYPREAKVQWKVDNALQSGNSQESVTEQDSKDSTYSLSSTLTLSKADYEKHKVYACEVTHQGLSSPVTKSFNRGECGGGGSGGGGSGGGGSGGGGSDIQMTQSPSSLSASVGDRVTITCHASQNINVWLSWYQQKPGKAPKLLIYKASNLHTGVPSRFTGSGSGTDFTFTISSLQPEDIATYYCQQGQTYPYTFGQGTKLEIKGGGGSGGGGSGGGGSGGGGSQVQLVQSGAEVKKPGASVKLSCKASGYIFTRYYMYWVKQRPGQGLEWIGEINPNNGGTKFNEKFKNRATLTVDKSISTAYMELSRLRSDDTAVYYCSREDDYDGTPFAMDYWGQGTLVTVSS
B6: bsAb001 (bispecific antibody, human IgG1, kappa)
heavy: QVQLVQSGAEVKKPGASVKLSCKASGYIFTRYYMYWVKQRPGQGLEWIGEINPNNGGTKFNEKFKNRATLTVDKSISTAYMELSRLRSDDTAVYYCSREDDYDGTPFAMDYWGQGTLVTVSSASTKGPSVFPLAPSSKSTSGGTAALGCLVKDYFPEPVTVSWNSGALTSGVHTFPAVLQSSGLYSLSSVVTVPSSSLGTQTYICNVNHKPSNTKVDKRVEPKSCDKTHTCPPCPAPEFEGGPSVFLFPPKPKDTLMISRTPEVTCVVVDVSHEDPEVKFNWYVDGVEVHNAKTKPREEQYNSTYRVVSVLTVLHQDWLNGKEYKCKVSNKALPASIEKTISKAKGQPREPQVYTLPPSREEMTKNQVSLTCLVKGFYPSDIAVEWESNGQPENNYKTTPPVLDSDGSFFLYSKLTVDKSRWQQGNVFSCSVMHEALHNHYTQKSLSLSPGGGGGSGGGGSGGGGSGGGGSQVQLVQSGVEVKKPGASVKVSCKASGYTFTNYYMYWVRQAPGQGLEWMGGINPSNGGTNFNEKFKNRVTLTTDSSTTTAYMELKSLQFDDTAVYYCARRDYRFDMGFDYWGQGTTVTVSSGGGGSGGGGSGGGGSGGGGSEIVLTQSPATLSLSPGERATLSCRASKGVSTSGYSYLHWYQQKPGQAPRLLIYLASYLESGVPARFSGSGSGTDFTLTISSLEPEDFAVYYCQHSRDLPLTFGGGTKVEIK
light: not shown
B7: bsAb011 (bispecific antibody)
heavy: QVQLVQSGAEVKKPGASVKLSCKASGYIFTRYYMYWVKQRPGQGLEWIGEINPNNGGTKFNEKFKNRATLTVDKSISTAYMELSRLRSDDTAVYYCSREDDYDGTPFAMDYWGQGTLVTVSSASTKGPSVFPLAPSSKSTSGGTAALGCLVKDYFPEPVTVSWNSGALTSGVHTFPAVLQSSGLYSLSSVVTVPSSSLGTQTYICNVNHKPSNTKVDKRVEPKSCDKTHTCPPCPAPEFEGGPSVFLFPPKPKDTLMISRTPEVTCVVVDVSHEDPEVKFNWYVDGVEVHNAKTKPREEQYNSTYRVVSVLTVLHQDWLNGKEYKCKVSNKALPASIEKTISKAKGQPREPQVYTLPPSREEMTKNQVSLTCLVKGFYPSDIAVEWESNGQPENNYKTTPPVLDSDGSFFLYSKLTVDKSRWQQGNVFSCSVMHEALHNHYTQKSLSLSPG
light: not shown
B8: bsAb003 (bispecific antibody, human IgG1, kappa)
heavy: QVQLVQSGAEVKKPGASVKLSCKASGYIFTRYYMYWVKQRPGQGLEWIGEINPNNGGTKFNEKFKNRATLTVDKSISTAYMELSRLRSDDTAVYYCSREDDYDGTPFAMDYWGQGTLVTVSSASTKGPSVFPLAPSSKSTSGGTAALGCLVKDYFPEPVTVSWNSGALTSGVHTFPAVLQSSGLYSLSSVVTVPSSSLGTQTYICNVNHKPSNTKVDKRVEPKSCDKTHTCPPCPAPEFEGGPSVFLFPPKPKDTLMISRTPEVTCVVVDVSHEDPEVKFNWYVDGVEVHNAKTKPREEQYNSTYRVVSVLTVLHQDWLNGKEYKCKVSNKALPASIEKTISKAKGQPREPQVYTLPPSREEMTKNQVSLTCLVKGFYPSDIAVEWESNGQPENNYKTTPPVLDSDGSFFLYSKLTVDKSRWQQGNVFSCSVMHEALHNHYTQKSLSLSPGGGGGSGGGGSGGGGSGGGGSEVQLVESGGGLVQPGGSLRLSCAASGFTFSRYWMSWVRQAPGKGLEWVANIKQDGSEKYYVDSVKGRFTISRDNAKNSLYLQMNSLRAEDTAVYYCAREGGWFGELAFDYWGQGTLVTVSSGGGGSGGGGSGGGGSGGGGSEIVLTQSPGTLSLSPGERATLSCRASQRVSSSYLAWYQQKPGQAPRLLIYDASSRATGIPDRFSGSGSGTDFTLTISRLEPEDFAVYYCQQYGSLPWTFGQGTKVEIK
light: not shown

BTN3A expressed at the cell surface (human), O00481, sequence (O00481 30-513): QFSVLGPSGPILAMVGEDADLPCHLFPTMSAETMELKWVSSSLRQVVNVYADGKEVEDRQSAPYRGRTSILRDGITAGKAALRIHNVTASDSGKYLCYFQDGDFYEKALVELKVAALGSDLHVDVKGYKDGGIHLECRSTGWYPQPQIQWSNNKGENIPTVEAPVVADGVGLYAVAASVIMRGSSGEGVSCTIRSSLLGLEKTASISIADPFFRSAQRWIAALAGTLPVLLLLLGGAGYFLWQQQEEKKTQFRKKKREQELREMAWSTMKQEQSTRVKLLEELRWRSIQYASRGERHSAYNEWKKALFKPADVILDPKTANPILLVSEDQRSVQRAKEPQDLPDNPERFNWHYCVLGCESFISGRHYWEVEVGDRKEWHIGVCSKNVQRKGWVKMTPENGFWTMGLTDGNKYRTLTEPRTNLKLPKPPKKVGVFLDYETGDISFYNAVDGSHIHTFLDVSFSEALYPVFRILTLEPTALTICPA

This experiment addresses BTN3A expressed at the cell surface (human), O00481. Nature of the experiment: cell-based or functional assay.
B1 gave a Jurkat-Vy9Vo2 TCR MOP activation at 0.5 nM (fold-change to medium) of 1.1 and a Jurkat-Vy9Vo2 TCR MOP activation at 5 nM (fold-change to medium) of 1.1.

Take B2: the Jurkat-Vy9Vo2 TCR MOP activation at 0.5 nM (fold-change to medium) turned out to be 1.1 and the Jurkat-Vy9Vo2 TCR MOP activation at 5 nM (fold-change to medium) came out at 1.1.

Turning to B3, the Jurkat-Vy9Vo2 TCR MOP activation at 0.5 nM (fold-change to medium) came out at 0.9 and the Jurkat-Vy9Vo2 TCR MOP activation at 5 nM (fold-change to medium) was 1.

B4 gave a Jurkat-Vy9Vo2 TCR MOP activation at 0.5 nM (fold-change to medium) of 1.2 and a Jurkat-Vy9Vo2 TCR MOP activation at 5 nM (fold-change to medium) of 1.1.

With B5, the Jurkat-Vy9Vo2 TCR MOP activation at 0.5 nM (fold-change to medium) was found to be 1.1 and the Jurkat-Vy9Vo2 TCR MOP activation at 5 nM (fold-change to medium) came out at 1.

Molecule B6 came in with a Jurkat-Vy9Vo2 TCR MOP activation at 0.5 nM (fold-change to medium) of 6.5 and a Jurkat-Vy9Vo2 TCR MOP activation at 5 nM (fold-change to medium) of 4.5.

B7 showed a Jurkat-Vy9Vo2 TCR MOP activation at 0.5 nM (fold-change to medium) of 12.2 and a Jurkat-Vy9Vo2 TCR MOP activation at 5 nM (fold-change to medium) of 9.8.

B8 registered a Jurkat-Vy9Vo2 TCR MOP activation at 0.5 nM (fold-change to medium) of 13.6 and a Jurkat-Vy9Vo2 TCR MOP activation at 5 nM (fold-change to medium) of 10.7.

These data come from patent US20260265379A1.
